Test results as given in article PMC5410128, “Can Aptameric Ligands Specific to Plasma Coagulation Factor VII Bind the Recombinant Form with High Affinity: Affinity Measurement by Fluorescence Method”.

B1: Apt81 (ssDNA)
DNA: GGGAGATAGCCACGACCTATGCAGCCAGCCGCAGTGTAAGTGAATGCAGACATGGTCTAAGTGTCCAGGCTGTGCGAAAGC

Biological target: recombinant activated coagulation factor VII (FVIIa, AryoSeven) (UniProt P08709;P08709 61-212;213-466)
Experiment: fluorescence intensity change (FAM), plate reader; 5 mM Ca2+, 5 mM Mg2+; 40 mM Tris, 117 mM NaCl, 5 mM CaCl2, 5 mM MgCl2, pH 7.4; 1 nM protein, aptamer 100 pM-10 uM; 4 C, 1 h; errors are SE
Settings: copies: 1;1, single strand, predicted partly folded

Sequence of recombinant activated coagulation factor VII (FVIIa, AryoSeven) (P08709 61-212, chain 1 of 2): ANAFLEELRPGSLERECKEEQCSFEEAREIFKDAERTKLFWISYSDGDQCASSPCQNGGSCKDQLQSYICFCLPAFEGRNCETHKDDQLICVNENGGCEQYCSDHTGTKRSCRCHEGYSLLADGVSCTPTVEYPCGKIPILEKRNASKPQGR
Sequence of recombinant activated coagulation factor VII (FVIIa, AryoSeven) (P08709 213-466, chain 2 of 2): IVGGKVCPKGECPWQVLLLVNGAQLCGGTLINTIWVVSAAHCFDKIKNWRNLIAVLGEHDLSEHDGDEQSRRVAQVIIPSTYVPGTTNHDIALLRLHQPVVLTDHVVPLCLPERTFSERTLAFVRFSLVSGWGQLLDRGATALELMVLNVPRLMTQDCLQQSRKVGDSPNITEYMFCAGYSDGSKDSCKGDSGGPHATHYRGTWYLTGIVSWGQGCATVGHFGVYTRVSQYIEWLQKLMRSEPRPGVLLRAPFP

Binder | Kd
CCGCACACCACGCGCATAATCCCGCGCACACGACTTGAAGTAGC (ssDNA) [Apt44] | 167 ± 18 nM
B1 | 938 ± 149 nM
